Laboratory results as given in patent US20230212239A1, “INHIBITORS OF CBL AUTOINHIBITION AND RELATED METHODS” (THE HOSPITAL FOR SICK CHILDREN, priority 2020, published 2023).
Entries after “also recorded” stand apart in the source; their conditions may differ.

T1: CBL TKBD-LHR-RING (2-436), unphosphorylated (Homo sapiens, UniProt P22681)
T1 construct: GST (N, cleaved yes); made in house; host or cells: E. coli BL-21
T1 sequence (P22681 2-436): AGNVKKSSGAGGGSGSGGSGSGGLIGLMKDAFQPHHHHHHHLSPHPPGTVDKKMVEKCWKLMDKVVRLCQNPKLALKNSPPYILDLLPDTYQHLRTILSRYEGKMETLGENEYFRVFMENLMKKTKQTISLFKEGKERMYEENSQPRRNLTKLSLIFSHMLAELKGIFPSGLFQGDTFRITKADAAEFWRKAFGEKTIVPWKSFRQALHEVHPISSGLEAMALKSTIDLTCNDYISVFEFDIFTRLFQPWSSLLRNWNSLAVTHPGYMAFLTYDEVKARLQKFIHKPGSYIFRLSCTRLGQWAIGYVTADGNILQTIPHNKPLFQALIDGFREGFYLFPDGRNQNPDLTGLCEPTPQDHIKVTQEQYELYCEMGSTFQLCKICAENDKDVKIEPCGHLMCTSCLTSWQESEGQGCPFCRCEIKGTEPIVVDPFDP

T2: CBL TKBD (Homo sapiens, UniProt P22681)
T2 construct: with CBL (47-357) cloned in frame into MCS2 of the same pETDuet-1 vector; made in house
T2 sequence (P22681 47-357): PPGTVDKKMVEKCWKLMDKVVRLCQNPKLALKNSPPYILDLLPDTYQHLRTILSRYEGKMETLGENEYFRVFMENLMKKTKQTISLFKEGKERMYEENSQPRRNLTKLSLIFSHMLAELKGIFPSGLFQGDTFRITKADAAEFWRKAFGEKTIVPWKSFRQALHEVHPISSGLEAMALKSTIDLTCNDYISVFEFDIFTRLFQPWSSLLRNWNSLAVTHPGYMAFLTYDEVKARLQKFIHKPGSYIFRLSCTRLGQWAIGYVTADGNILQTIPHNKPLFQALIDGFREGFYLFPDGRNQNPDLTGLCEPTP


Tests used:
[1] = target: T1, CBL TKBD-LHR-RING (2-436), unphosphorylated; test: In vitro ubiquitination assay, anti-ubiquitin immunoblot; assay type: biochemical; conditions: added to unphosphorylated CBL; 20 pmol CBL, 60 pmol SLAP2/pSLAP2
Description: Given that binding of SLAP2 and the LHR-RING would be mutually exclusive (FIG. 8C), we reasoned that binding of SLAP2 to CBL could displace the LHR-RING, thereby promoting the catalytically competent conformation. To test this hypothesis, an in vitro ubiquitination assay in which E3 ligase activity is detected by a smear at high molecular weight on an anti-ubiquitin (Ub) immunoblot was employed. […] To further compare and quantify CBL ubiquitin ligase activity, a chemiluminescence based assay which measures the total amount of polyubiquitylated products formed in an in vitro reaction was used. In this assay, production of polyubiquitylated proteins increased upon addition of SLAP2 or pSLAP2 to CBL, compared to CBL alone (FIG. 9C and FIG. 10A).
In vitro ubiquitination reactions were prepared with 20 pmol of CBL or pCBL and 60 pmol of hSLAP2 or phosphorylated hSLAP2 (pSLAP2) for both WT and mutants. Reagents were thawed and reactions prepared on ice. CBL and SLAP2 were mixed in PBS (with 5 mM βME, 5 mM caproic acid, 0.5 mM PMSF, and 0.5 mM Na3VO4) at rt for 5-10 min before addition of master mix (42 pmol E1 (UBE1, Boston Biochem or Ubiquitin-Proteasome Biotechnologies), 0.1 µmol E2 (UbcH5b/UBE2D2, Boston Biochem #E2-622), […], and 11.6 µmol ubiquitin (Boston Biochem #U-100H) in reaction buffer (0.2 M Tris pH 7.5, 10 mM MgCl2, 2 mM DTT). Reactions were incubated at 30° C. shaking at 500-700 rpm for 60-110 minutes and terminated by addition of SDS 2X loading buffer and boiling for 5-10 minutes. Equal volumes of each reaction were loaded on 12.5% SDS-PAGE gel, transferred to PVDF membrane, and immunoblotted for ubiquitin as per standard protocols (anti-ubiquitin antibody P4G7, BioLegend #838701, 1:1000; anti-mouse IgG HRP-linked antibody, Cell Signaling Technology #7076, 1:10000; Western Lightning Plus ECL, Perkin Elmer).

[2] = target: T2, CBL TKBD; test: Co-purification of CBL TKBD with Trx-His-SLAP2/SLAP (Duet co-expression, Ni-NTA, SDS-PAGE); assay type: binding
Description: To validate the CBL/SLAP2 binding interface, a series of mutants in a Duet co-expression vector system was generated for co-purification trials. The SLAP2 sequence was preceded by thioredoxin (Trx) and His-tag fusion proteins to allow co-purification of CBL TKBD that was bound to Trx-His-SLAP2 during the initial affinity chromatography purification step. Surface residues deemed to be important to the CBL/SLAP2 interface, but not CBL function or folding, were mutated to disrupt CBL/SLAP2 binding (FIG. 5C and FIG. 6). In our structure, SLAP2 Gly240 locates close to CBL Met269 and Ala270, such that mutation to a bulky Arg residue (G240R) could cause sterical constraints. Similarly, SLAP2 Leu241 is situated in a hydrophobic cleft composed of CBL Ala223, Trp258, and Val263; mutation to Arg (L241R) was predicted to disturb this binding pocket. Mutation of CBL Ala223 to Arg (A223R) would likewise disrupt this pocket, with CBL/SLAP2 double mutant A223R/L241R predicted to drastically disturb binding through sterical constraints and charge repulsion. (For clarity, CBL mutations herein are indicated in italics, SLAP2 in regular font.) Similarly, single or double mutation of CBL Ser226 or SLAP2 Ser244, whose side chain hydroxyl groups are in close proximity to one another, to charged Glu residues (S226E and S244E) was anticipated to interfere with CBL/SLAP2 binding. Finally, given that SLAP2 binds CBL as an α-helix, mutation of Leu245, located in the center of this α-helix, to proline (L245P) was expected to interrupt the helical structure and thus prevent SLAP2 binding. […] However, double mutation of the CBL/SLAP2 interface (A223R/L241R and S226E/S244E; FIG. 5D, lower panel) was not tolerated, even at low salt concentration.
For co-purification of CBL and SLAP2/SLAP, Duet-His-hSLAP2-CBL 29-261 Δ198-229 and 29-254 Δ198-229, Duet-His-Δlinker-hSLAP2-CBL WT and point mutants, and Duet-His-mSLAP-CBL WT and point mutants were overexpressed in E. coli BL-21 as above or TKB1 competent cells (Stratagene) as per manufacturer’s instructions, and cells harvested as above (except 100 mL of LB, overnight at 16-18° C., and 0.35-0.5 mM IPTG induction). Cell pellets were resuspended in either high or low salt (as for high salt except 25 mM HEPEs pH 7.5, 150 mM NaCl) lysis buffer and purified as above on Ni-NTA agarose (Qiagen) with wash buffer (25 mM HEPEs pH 7.5, 150 mM NaCl, 2% glycerol, 20 mM imidazole, 10 mM βME). Bead slurry was mixed with SDS 2X loading buffer (125 mM Tris pH 6.8, 4% SDS, 20% glycerol, 0.715 M βME, bromophenol blue), boiled, and analyzed by 10 or 12.5% SDS-PAGE, stained with Coomassie blue.

Molecule | CBL ubiquitination activity (anti-Ub immunoblot) [1] | CBL TKBD co-purification ([2]; conditions where SLAP2 was tyrosine phosphorylated (TKB1), low salt) | CBL TKBD co-purification ([2]; high salt conditions (0.5 M NaCl))
pSLAP2: tyrosine phosphorylated SLAP2 expressed in TKB1 cells (protein, UniProt Q9H6Q3 2-261, looked up, tyrosine phosphorylated, tyrosine phosphorylated SLAP2 expressed in TKB1 cells) Src-like-adapter 2: GSLPSRRKSLPSPSLSSSVQGQGPVTMEAERSKATAVALGSFPAGGPAELSLRLGEPLTIVSEDGDWWTVLSEVSGREYNIPSVHVAKVSHGWLYEGLSREKAEELLLLPGNPGGAFLIRESQTRRGSYSLSVRLSRPASWDRIRHYRIHCLDNGWLYISPRLTFPSLQALVDHYSELADDICCLLKEPCVLQRAGPLPGKDIPLPVTVQRTPLNWKELDSSLLFSEAATGEESLLSEGLRESLSFYISLNDEAVSLDDA | stimulated CBL ubiquitination activity; also recorded: promote CBL ubiquitination activity to a greater extent than the addition of SLAP2 | co-purified | –
Trx-His(6)-Δlinker-hSLAP2 (human SLAP2 29-261) (other, also called Trx-His-SLAP2; SLAP2 WT; not shown: N-terminal thioredoxin (Trx)-His(6)-TEV-site tag and linker of the modified pET32a (Δlinker version)) EAERSKATAVALGSFPAGGPAELSLRLGEPLTIVSEDGDWWTVLSEVSGREYNIPSVHVAKVSHGWLYEGLSREKAEELLLLPGNPGGAFLIRESQTRRGSYSLSVRLSRPASWDRIRHYRIHCLDNGWLYISPRLTFPSLQALVDHYSELADDICCLLKEPCVLQRAGPLPGKDIPLPVTVQRTPLNWKELDSSLLFSEAATGEESLLSEGLRESLSFYISLNDEAVSLDDA | stimulated CBL ubiquitination activity | – | co-purified
